{
  "source": "paper PMC8609364",
  "about": "“A Selective Tether Recruits Activated Response Regulator CheB to Its Chemoreceptor Substrate” (mBio, 2021)",
  "key": {"[1]": {"tested_on": "Tar4E (chemoreceptor Tar, all-glutamyl, pentapeptide-bearing)", "experiment": "CheB binding to pentapeptide-bearing Tar4E in Nanodiscs (biolayer interferometry)", "design": "species or system E. coli", "settings": "Tar 4E, pentapeptide yes, BLI; for dwell time (1/koff) / KA (equilibrium association constant) / kon (apparent association rate constant): pH 7.5, 2% BSA (plus 2 mM DTT for CheB and CheBc); for dwell time (1/koff): calculated from mean koff; for kon (apparent association rate constant): mean ± SD of at least three independent experiments", "protocol": "(§1) We determined the kinetics of association and dissociation of methylesterase/deamidase CheB in its low- and high-activity form with the E. coli aspartate chemoreceptor Tar using biolayer interferometry ([22], [23]) and isolated receptor homodimers in Nanodiscs ([24], [25]). Apparent rate constants of association and dissociation were derived from global fits of time courses for binding and release (see Fig. S1 in the supplemental material). Equilibrium dissociation constants were calculated from those apparent rate constants.\nSupplementary file : FIG S1 Example time courses of CheB binding to Tar. Time courses from five consecutive runs of CheB at different concentrations binding to immobilized Tar4E homodimers. For each time course, a sensor tip decorated with avidin to which were bound biotinylated Tar homodimers in Nanodiscs was placed in buffer and a baseline was established (240 to 255 s). The tip was then placed in a tube containing a solution of CheB at a specific concentration. After 30 s, at which time binding of CheB and Tar was close to an apparent equilibrium, the tip was switched to a tube of buffer, and dissociation was monitored. The global fit to the data is shown as a thin black line. Download FIG S1, TIF file, 1.9 MB.\n(§2) E. coli CheB and Salmonella CheB D56C/C207S/C309S and D56C/S164A/C207S/C309S were purified as described previously ([11]). CheBC (amino acids [aa] 153 to 349) was purified using the procedure of West et al. ([40]), except that Bio-Gel P-60, was not used. CheB D56C/C207S/C309S and CheB D56C/S164A/C207S/C309S were modified to create a disulfide-linked phosphoryl group on D56C following the procedure described in reference but using a 10-fold molar excess of DTNB [Ellman’s reagent, 5,5′-disulfanediylbis(2-nitrobenzoic acid)] rather than 90-fold and a 50-fold molar excess Na3SPO3 rather than 1,000-fold. The extent of modification was 59% for the former and 60% for the latter determined by reversed phase chromatography essentially as described previously ([26]) and confirmed by Nano LC-Nanospray QTQF mass spectroscopy. Membrane scaffold protein MSP1D1(-) ([41]) was purified as described previously ([25]). Tar4E L378C, Tar4Q L378C, Tar4EΔpp-6H L378C, and Tar4QΔpp-6H L378C were purified, incorporated into Nanodiscs at approximately one receptor dimer per disc, and biotinylated at L378C as described previously ([23], [42]). […] These activities were confirmed for representative samples used in our analyses. Receptor-containing Nanodiscs were dialyzed into 50 mM Tris-HCl (pH 7.5), 0.5 mM EDTA, 10% (wt/vol) glycerol, and 100 mM NaCl. Prior to a binding experiment, the solution was changed using a spin desalting column to 50 mM Tris-HCl, 10% (wt/vol) glycerol, 5 mM MgCl2, and 50 mM KCl (pH 7.5).\n(§3) Kinetics of CheB association and dissociation with Nanodisc-embedded Tar biotinylated at L378C were determined using biolayer interferometry ([22], [23]) as measured by a BLItz instrument (ForteBio, Menlo Park, CA, USA) and described in reference. Representative time course experiments are shown in Fig. S1 in the supplemental material. Measurements for CheB-P* and CheB-P*-I were in 50 mM Tris-HCl (pH 7.5), 10% (wt/vol) glycerol, 5 mM MgCl2, 50 mM KCl, and 2% (wt/vol) bovine serum albumin (BSA). Measurements for CheB and CheBc were in the same solution plus 2 mM dithiothreitol (DTT).\nUsing BLItz software, response curves were fit globally to a 1:1 binding model to yield apparent association rate constants (kon) and dissociation rate constants (koff). For analysis of complex patterns of binding, in which more than one binding reaction appeared to be contributing, for instance one that appeared saturable and another nonspecific, nonsaturable, the data were exported and fit globally to nonlinear exponential functions using OriginPro 2017. The best fits to the data were obtained using the following functions. […]"}, "[2]": {"tested_on": "Tar4QΔpp (chemoreceptor Tar, all-glutaminyl, lacking NWETF)", "experiment": "CheB binding to Tar4QΔpp (pentapeptide-lacking) in Nanodiscs (biolayer interferometry)", "design": "species or system E. coli", "settings": "Tar 4Q, pentapeptide no, BLI, pH 7.5, 2% BSA (plus 2 mM DTT for CheB and CheBc); for dwell time (1/koff): calculated from mean koff; for dwell time (1/koff) / KA (equilibrium association constant): propagated SD; for KA (equilibrium association constant): calculated from mean kon and koff; for kon (apparent association rate constant): mean ± SD of at least three independent experiments", "protocol": "as §1, §2, §3\nUsing BLItz software, response curves were fit globally to a 1:1 binding model to yield apparent association rate constants (kon) and dissociation rate constants (koff). For analysis of complex patterns of binding, in which more than one binding reaction appeared to be contributing, for instance one that appeared saturable and another nonspecific, nonsaturable, the data were exported and fit globally to nonlinear exponential functions using OriginPro 2017. The best fits to the data were obtained using the following functions. R=R0 + Req[a(e^−kd1 t) + b(e^−kd2 t)] was used to globally fit dissociation time courses, with R being the response (in nanometers), a + b = 1, with a and b being the portion of the signal (in nanometers) for fast and slow phases, respectively, kd1 and kd2 being the respective dissociation rate constants, and Req being the response at equilibrium. Association data were fit using apparent dissociation rate constants kd1 and kd2, relevant CheB concentrations (C) and the equation R=R0 + Req[a(1 − e^−(ka1 C+kd1)t) + b(1 − e^−(ka2 C+kd2)t)]"}, "[3]": {"molecular_target": "Tar4Q L378C, E. coli aspartate chemoreceptor Tar, all-glutaminyl form with carboxyl-terminal pentapeptide, … (E. coli, UniProt P07017 1-553, L378C, biotinylated at L378C)", "experiment": "SPR"}, "[4]": {"molecular_target": "Tar4E L378C, E. coli aspartate chemoreceptor Tar, all-glutamyl form with carboxyl-terminal pentapeptide, … (E. coli, UniProt P07017 1-553, L378C, biotinylated at L378C)", "experiment": "SPR"}, "[5]": {"molecular_target": "Tar4EΔpp-6H L378C, E. coli Tar lacking the carboxyl-terminal pentapeptide, all-glutamyl form, homodimer in … (E. coli, UniProt P07017 1-553, L378C, biotinylated at L378C)", "experiment": "SPR"}, "[6]": {"molecular_target": "Tar4QΔpp-6H L378C, E. coli Tar lacking the carboxyl-terminal pentapeptide, all-glutaminyl form, homodimer in … (E. coli, UniProt P07017 1-553, L378C, biotinylated at L378C)", "experiment": "SPR"}, "[7]": {"settings": "calculated from mean kon and koff, propagated SD"}},
  "data": [
    {"molecule": "CheBC, catalytic domain of E. coli CheB lacking the regulatory domain and linker (domain or fragment) LSSEKLIAIGASTGGTEAIRHVLQPLPLSSPALLITQHMPPGFTRSFADRLNKLCQIGVKEAEDGERVLPGHAYIAPGDRHMELSRSGANYQIKIHDGPAVNRHRPSVDVLFHSVAKQAGRNAVGVILTGMGNDGAAGMLAMRQAGAWTLAQNEASCVVFGMPREAINMGGVCEVVDLSQVSQQMLAKISAGQAIRI", "values": [
      {"measurement": "dwell time (1/koff)", "setting": "[1]; propagated SD", "value": "2.1 ± 0.1", "unit": "s"},
      {"measurement": "KA (equilibrium association constant)", "setting": "[1]; [7]", "value": "1.7 ± 0.4 10^3 M^-1"},
      {"measurement": "kon (apparent association rate constant)", "setting": "[1]", "value": "810 ± 200", "unit": "M⁻¹ s⁻¹"},
      {"measurement": "dwell time (1/koff)", "setting": "[2]", "value": "1.7 ± 0.1", "unit": "s"},
      {"measurement": "KA (equilibrium association constant)", "setting": "[2]", "value": "0.8 ± 0.1 10^3 M^-1"},
      {"measurement": "kon (apparent association rate constant)", "setting": "[2]", "value": "480 ± 20", "unit": "M⁻¹ s⁻¹"},
      {"measurement": "koff", "setting": "[3]", "value": 0.48, "unit": "s⁻¹"},
      {"measurement": "koff", "setting": "[4]", "value": 0.48, "unit": "s⁻¹"},
      {"measurement": "koff", "setting": "[5]", "value": 0.44, "unit": "s⁻¹"},
      {"measurement": "koff", "setting": "[6]", "value": 0.58, "unit": "s⁻¹"}
    ]},
    {"molecule": "methylesterase/deamidase CheB from E. coli, low-activity, unphosphorylated form (enzyme, UniProt P07330 1-349, looked up, CheB methylesterase/deamidase of E. coli, unphosphorylated, from plasmid pCW/cheB; measured with 2 mM DTT in the buffer; also called low-activity CheB; unmodified CheB; source: E. coli K-12 RP3098 with pCW/cheB, purified) MSKIRVLSVDDSALMRQIMTEIINSHSDMEMVATAPDPLVARDLIKKFNPDVLTLDVEMPRMDGLDFLEKLMRLRPMPVVMVSSLTGKGSEVTLRALELGAIDFVTKPQLGIREGMLAYNEMIAEKVRTAAKASLAAHKPLSAPTTLKAGPLLSSEKLIAIGASTGGTEAIRHVLQPLPLSSPALLITQHMPPGFTRSFADRLNKLCQIGVKEAEDGERVLPGHAYIAPGDRHMELSRSGANYQIKIHDGPAVNRHRPSVDVLFHSVAKQAGRNAVGVILTGMGNDGAAGMLAMRQAGAWTLAQNEASCVVFGMPREAINMGGVCEVVDLSQVSQQMLAKISAGQAIRI", "values": [
      {"measurement": "Kd", "setting": "[1]; 50 mM Tris-HCl pH 7.5, 10% glycerol, 5 mM MgCl2, 50 mM KCl, 2% BSA (plus 2 mM DTT for CheB and CheBc), calculated from mean kon and koff, propagated SD, read-out: KD (equilibrium dissociation constant)", "value": "230 ± 60", "unit": "µM"},
      {"measurement": "dwell time (1/koff)", "setting": "[1]; propagated SD", "value": "2.8 ± 0.2", "unit": "s"},
      {"measurement": "KA (equilibrium association constant)", "setting": "[1]; [7]", "value": "4.4 ± 1 10^3 M^-1"},
      {"measurement": "kon (apparent association rate constant)", "setting": "[1]", "value": "1,600 ± 420 M^-1s^-1"},
      {"measurement": "dwell time (1/koff)", "setting": "[2]", "value": "1.5 ± 0.05", "unit": "s"},
      {"measurement": "KA (equilibrium association constant)", "setting": "[2]", "value": "1.7 ± 0.4 10^3 M^-1"},
      {"measurement": "kon (apparent association rate constant)", "setting": "[2]", "value": "1,100 ± 260 M^-1s^-1"},
      {"measurement": "koff", "setting": "[3]", "value": 0.46, "unit": "s⁻¹"},
      {"measurement": "koff", "setting": "[4]", "value": 0.36, "unit": "s⁻¹"},
      {"measurement": "koff", "setting": "[5]", "value": 0.64, "unit": "s⁻¹"},
      {"measurement": "koff", "setting": "[6]", "value": 0.65, "unit": "s⁻¹"}
    ]}
  ]
}
